Measured values taken from patent US20030143729A1, “DNA encoding taurine and GABA transporters and uses thereof” (Synaptic Pharmaceutical Corporation, priority 1992, published 2003).
“And” between values parts separate entries of the source, which are not always exact repeats. Equal values may be shown once.

B1: GAT-2 (Rattus norvegicus) (protein)
chain: MDNRVSGTTSNGETKPVCPVMEKVEEDGTLEREQWTNKMEFVLSVAGEIIGLGNVWRFPYLCYKNGGGAFFIPYLIFLFTCGIPVFFLETALGQYTNQGGITAWRKICPIFEGIGYASQMIVSLLNVYYIVVLAWALFYLFSSFTTDLPWGSCSHEWNTENCVEFQKTNNSLNVTSENATSPVIEFWERRVLKISDGIQHLGSLRWELVLCLLLAWIICYFCIWKGVKSTGKVVYFTATFPYLMLVVLLIRGVTLPGAAQGIQFYLYPNITRLWDPQVWMDAGTQIFFSFAICLGCLTALGSYNKYHNNCYRDCVALCILNSSTSFVAGFAIFSILGFMSQEQGVPISEVAESGPGLAFIAYPRAVVMLPFSPLWACCFFFMVVLLGLDSQFVCVESLVTALVDMYPRVFRKKNRREILILIVSVVSFFIGLIMLTEGGMYVFQLFDYYAASGMCLLFVAIFESLCVAWVYGASRFYDNIEDMIGYKPWPLIKYCWLFFTPAVCLATFLFSLIKYTPLTYNKKYTYPWWGDALGWLLALSSMVCIPAWSIYKLRTLKGPLRERLRQLVCPAEDLPQKSQPELTSPATPMTSLLRLTELESNC
B2: taurine transporter (rB16a) (Rattus norvegicus) (protein)
chain: MATKEKLQCLKDFHKDILKPSPGKSPGTRPEDEADGKPPQREKWSSKIDFVLSVAGGFVGLGNVWRFPYLCYKNGGGAFLIPYFIFLFGSGLPVFFLEVIIGQYTSEGGITCWEKICPLFSGIGYASIVIVSLLNVYYIVILAWATYYLFQSFQKDLPWAHCNHSWNTPQCMEDTLRRNESHWVSLSAANFTSPVIEFWERNVLSLSSGIDHPGSLKWDLALCLLLVWLVCFFCIWKGVRSTGKVVYFTATFPFAMLLVLLVRGLTLPGAGEGIKFYLYPNISRLEDPQVWIDAGTQIFFSYAICLGAMTSLGSYNKYKYNSYRDCMLLGCLNSGTSFVSGFAIFSILGFMAQEQGVDIADVAESGPGLAFIAYPKAVTMMPLPTFWSILFFIMLLLLGLDSQFVEVEGQITSLVDLYPSFLRKGYRREIFIAIVCSISYLLGLTMVTEGGMYVFQLFDYYAASGVCLLWVAFFECFVIAWIYGGDNLYDGIEDMIGYRPGPWMKYSWAVITPALCVGCFIFSLVKYVPLTYNKVYRYPDWAIGLGWGLALSSMVCIPLVIVILLCRTEGPLRVRIKYLITPREPNRWAVEREGATPFHSRATLMNGALMKPSHVIVETMM

Experiments:
[1] = substrate: NCCCC(=O)O; test: cells, lysate or membranes; conditions: other: various concentrations of [3H]GABA, 30 seconds; pH 7.4; 37.0 °C
[2] = substrate: NCCS(=O)(=O)O; test: cells, lysate or membranes; conditions: other: various concentrations of [3H]taurine, 30 seconds, pH 7.4
Method: Transient transfections of COS cells with the plasmid pEVJB-rB16a were carried out using DEAE-dextran with DMSO according to the method of Lopata et al. (58) with minor modifications. COS cells were grown (37° C., 5%CO2) in high glucose Dulbecco's modified Eagle medium supplemented with 10% bovine calf serum, 100 U/ml penicillin G, and 100 μg/ml streptomycin sulfate. Cells were routinely used two days after transfection for transport studies.
Plates were incubated at 37° C. for 10 minutes unless indicated otherwise, then washed rapidly 3× with ice cold HBS. Cells were solubilized with 0.05% sodium deoxycholate/0.1N NaOH), an aliquot was neutralized with 1N HCl, and radioactivity was determined by scintillation counting. Protein was quantified in an aliquot of the solubilized cells using a BIO-RAD protein assay kit, according to the manufacturer's directions.

Protein	Km [1]	Km [2]
B1	4 µM and 8 ± 3 µM	–
B2	–	43 ± 6 µM
